Values quoted from earlier work as cited in article PMC3081175.

Target: c-Met (Homo sapiens) (UniProt P08581)
Sequence of UniProt P08581 (P08581 25-932): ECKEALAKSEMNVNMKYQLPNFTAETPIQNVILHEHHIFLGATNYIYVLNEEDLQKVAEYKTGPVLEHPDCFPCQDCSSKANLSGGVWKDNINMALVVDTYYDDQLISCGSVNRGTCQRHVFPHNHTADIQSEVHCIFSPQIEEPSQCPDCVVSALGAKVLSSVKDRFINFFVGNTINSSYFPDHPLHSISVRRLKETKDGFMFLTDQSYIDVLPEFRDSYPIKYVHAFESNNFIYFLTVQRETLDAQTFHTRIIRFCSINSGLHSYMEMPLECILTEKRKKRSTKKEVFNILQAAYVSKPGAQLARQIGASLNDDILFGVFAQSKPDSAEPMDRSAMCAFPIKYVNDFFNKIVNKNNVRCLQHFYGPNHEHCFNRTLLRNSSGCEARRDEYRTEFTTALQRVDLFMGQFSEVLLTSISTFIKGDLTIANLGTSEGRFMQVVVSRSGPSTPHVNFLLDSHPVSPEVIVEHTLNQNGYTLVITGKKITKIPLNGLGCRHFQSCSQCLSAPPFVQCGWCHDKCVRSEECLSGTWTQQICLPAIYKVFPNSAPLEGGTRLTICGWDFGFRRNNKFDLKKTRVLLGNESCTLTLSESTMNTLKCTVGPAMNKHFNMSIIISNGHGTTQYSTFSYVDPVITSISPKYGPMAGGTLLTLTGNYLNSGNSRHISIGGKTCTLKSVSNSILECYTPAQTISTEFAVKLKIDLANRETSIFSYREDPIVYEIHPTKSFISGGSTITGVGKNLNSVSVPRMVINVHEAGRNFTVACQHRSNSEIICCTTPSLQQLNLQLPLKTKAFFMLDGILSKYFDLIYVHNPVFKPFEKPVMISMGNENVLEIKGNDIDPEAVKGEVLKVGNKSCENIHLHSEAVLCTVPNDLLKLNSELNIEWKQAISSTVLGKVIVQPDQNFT

Kd: 0.03 nM
Substance: HGF (from UniProt P14210)
